This note sets out measurements from article PMC9320857, “Protocellular CRISPR/Cas‐Based Diffusive Communication Using Transcriptional RNA Signaling”.

The data set has as its target T7 RNA polymerase (UniProt P00573 1-883). Kind of data set: confocal localization to immobilized DNA; 500 nM Cy5-T7 RNAP, 0.5 h, 37 C; target in proteinosomes; reaction buffer (composition not in the material; NEB buffer 3.1 mentioned), 37 C; DNA localization in 10 mM Tris pH 8.0, 12 mM Mg, 0.1% Tween 20. As to conditions: protein: commercial; tags: Cy5 label; label: Cy3 5' on NTMG; biotin on TMG; NTMG 5' overhang 27 nt (incomplete T7 promoter).

T7 RNA polymerase, sequence (P00573 whole entry): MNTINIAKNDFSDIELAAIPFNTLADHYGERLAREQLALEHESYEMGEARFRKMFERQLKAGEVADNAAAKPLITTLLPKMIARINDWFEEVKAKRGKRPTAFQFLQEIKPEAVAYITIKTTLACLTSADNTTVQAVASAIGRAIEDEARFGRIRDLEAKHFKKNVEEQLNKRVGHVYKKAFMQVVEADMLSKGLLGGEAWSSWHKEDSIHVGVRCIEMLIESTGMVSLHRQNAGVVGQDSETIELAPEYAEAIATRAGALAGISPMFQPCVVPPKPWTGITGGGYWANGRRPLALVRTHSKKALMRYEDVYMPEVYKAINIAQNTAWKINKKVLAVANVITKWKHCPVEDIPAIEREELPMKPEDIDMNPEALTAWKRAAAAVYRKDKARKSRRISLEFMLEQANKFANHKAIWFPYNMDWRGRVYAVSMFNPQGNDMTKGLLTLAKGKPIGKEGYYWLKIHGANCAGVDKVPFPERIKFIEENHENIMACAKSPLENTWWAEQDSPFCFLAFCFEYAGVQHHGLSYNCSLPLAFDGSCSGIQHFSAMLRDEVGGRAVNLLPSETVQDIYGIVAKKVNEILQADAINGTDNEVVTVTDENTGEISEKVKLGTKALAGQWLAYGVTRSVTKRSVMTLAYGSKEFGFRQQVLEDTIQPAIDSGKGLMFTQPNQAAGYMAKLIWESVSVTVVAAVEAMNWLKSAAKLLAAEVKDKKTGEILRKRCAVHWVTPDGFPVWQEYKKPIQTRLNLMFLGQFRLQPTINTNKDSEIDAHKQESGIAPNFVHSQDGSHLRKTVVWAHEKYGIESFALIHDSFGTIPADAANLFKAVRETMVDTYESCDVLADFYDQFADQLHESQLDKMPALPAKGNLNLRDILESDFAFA

B1: MG genelet TMG/NTMG (dsDNA)
DNA 1: CATTAGTGTCGTTCGTTCACAGTAATACGACTCACTATAGGGATCCCGACTGGCGAGAGCCAGGTAACGAATGGATC
DNA 2: GATCCATTCGTTACCTGGCTCTCGCCAGTCGGGATCCCTATAGTGAGTCG
In the case of B1, the binding result is “binds”.
